Results as given in PMC7299630.

B1: HTR2C RNA duplex probe (structured_RNA)
RNA: AUCAUGCACCUCUGCGCUAUAUCGCUGGAUCGGUAUGUAGCAAUACGUAAUCCUAUUGAGCAUAGCCGUUUCAAUUCGCGGACUAAGGCCAUCAUGAAGAUUGCUAUUGUUUGGGCAAUUUCUAUAGGUAAAUAAAACUUUUUGGCCAUAAGAAUUGCAGCGGCUAUGCUCAAUACUUUCGGAUUAUGUACUGUGAACAACGUACAGACGUCGACUGGUAACAUUUGCGUUUGAUCGGGUUCU
B2: MAGT1 RNA duplex probe (structured_RNA)
RNA: GCUAAUUUUUGUGUUUUUAGUAGAGACCUCGAGGUCUCUACUAAAAAUAUGAAAAUUAGC

Target: DAP3-GST (UniProt P51398 1-398)
Assay: EMSA

| Binder | binding result |
| --- | --- |
| B1 | no binding |
| B2 | no binding |
